Measured values: patent US20080182978A1, “ANTI-NGF ANTIBODIES AND METHODS USING SAME” (RINAT NEUROSCIENCE CORP, priority 2002, published 2008)
Entries after “also recorded” stand apart in the source; their conditions may differ.

Columns and labels:
human NGF = human NGF (Homo sapiens, UniProt P01138); assay: BIAcore screening assay of Fab library clones (koff); format: binding; conditions: Table 8: CDR L3 H3 combination mutations, H19-L129 template (H1H2L1L2 matured)
Method in brief: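 Fab library clones expressed in E. coli (1 mM IPTG, 5 h, 30° C), lysed by freeze-thaw in HBS-EP; lysates injected at 50 μl/min for 2 min over CM5-immobilised human NGF (500-600 RU). Single-exponential koff fitted from 10-15 min dissociation; Fab presence checked via anti-penta-His channel.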

BDNF = target: T1, BDNF (Homo sapiens, UniProt P23560); assay: Mouse E17 nodose neuron survival assay, BDNF; format: cell-based; conditions: BDNF 400 pM; antibody up to 200 nM; 48 hours
T1 sequence (P23560 129-247): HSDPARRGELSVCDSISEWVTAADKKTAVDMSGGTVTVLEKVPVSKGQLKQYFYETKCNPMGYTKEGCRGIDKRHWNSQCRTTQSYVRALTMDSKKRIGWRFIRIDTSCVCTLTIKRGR
Experimental: The ability of antibody E3 to specifically block NGF activity was also evaluated by measurement of the capacity of the antibody to inhibit survival of mouse nodose E17 neurons in the presence of saturating concentrations of BDNF or NT4/5. Survival of nodose neurons is supported by BDNF or NT4/5; therefore, survival of these neurons is a sensitive assay to evaluate the BDNF or NT4/5-blocking ability of the anti-NGF antagonist antibody.
(§1) The survival assay was conducted as follows: time mated pregnant Swiss Webster female mice were euthanised by CO2 inhalation. The uterine horns were removed and the embryos (at embryonic day 17 or 18) were extracted and decapitated. The trigeminal and nodose ganglia were dissected and cleaned. The ganglia were then trypsinised, mechanically dissociated and plated at a density of 100-300 cells per well in defined, serum-free medium in 4-well plates (Greiner) coated with poly-L-ornithine and laminin.
E17 nodose neurons were grown either in the absence of added neurotrophic factors (negative control), or with saturating concentrations of BDNF (400 pM) (positive control) or NT4/5 (400 pM) or NGF unrelated growth factor […]. High concentrations of neurotrophins were used, as the goal of this experiment was to test specificity of the antibodies. […]

[1] = target: macrophage stimulating protein (MSP) (Homo sapiens, UniProt P26927); assay: Mouse E17/18 trigeminal neuron survival assay, MSP; format: cell-based; conditions: MSP 600 pM; antibody up to 200 nM; 48 hours
Experimental: The ability of antibody E3 to specifically block NGF activity was evaluated by measurement of the capacity of the antibody to inhibit survival of mouse E17/18 trigeminal neurons in vitro in the presence of saturating concentrations of NGF, the NGF-related neurotrophin NT3, or the NGF-unrelated neurotrophic factor, macrophage stimulating protein (MSP). The survival of mouse E17/18 trigeminal neurons is a sensitive assay to evaluate the NGF-blocking activity of anti-NGF antagonist antibodies because NGF is required to support survival of these neurons at higher concentrations than the level of NGF required to support survival of E13.5 TG neurons).
as §1
E17/18 trigeminal neurons were grown either without added neurotrophic factors (negative control) or in the presence of saturating concentrations of human NGF (400 pM and 15 pM) (positive control); NT3 (400 pM); or MSP (600 pM). […]

Sequence of macrophage stimulating protein (MSP) (P26927 19-711, species assumed): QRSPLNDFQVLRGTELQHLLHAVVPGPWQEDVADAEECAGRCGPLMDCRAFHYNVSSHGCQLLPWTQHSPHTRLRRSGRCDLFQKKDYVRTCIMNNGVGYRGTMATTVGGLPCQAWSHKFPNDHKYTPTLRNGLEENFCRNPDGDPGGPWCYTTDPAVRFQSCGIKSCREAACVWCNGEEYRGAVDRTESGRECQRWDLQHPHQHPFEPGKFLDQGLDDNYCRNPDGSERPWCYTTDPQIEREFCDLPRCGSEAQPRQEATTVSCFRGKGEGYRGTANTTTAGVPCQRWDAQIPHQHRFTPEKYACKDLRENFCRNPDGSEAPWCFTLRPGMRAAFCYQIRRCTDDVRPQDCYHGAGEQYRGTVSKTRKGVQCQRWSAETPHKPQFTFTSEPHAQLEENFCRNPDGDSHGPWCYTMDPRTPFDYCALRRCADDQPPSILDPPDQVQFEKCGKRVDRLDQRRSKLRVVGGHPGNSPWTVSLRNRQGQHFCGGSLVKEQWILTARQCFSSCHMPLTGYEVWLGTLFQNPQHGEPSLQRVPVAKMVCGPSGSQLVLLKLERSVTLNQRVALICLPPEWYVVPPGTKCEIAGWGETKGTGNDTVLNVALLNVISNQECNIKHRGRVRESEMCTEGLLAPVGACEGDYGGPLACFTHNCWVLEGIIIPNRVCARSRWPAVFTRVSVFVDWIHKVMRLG
Sequence of human NGF (P01138 122-241): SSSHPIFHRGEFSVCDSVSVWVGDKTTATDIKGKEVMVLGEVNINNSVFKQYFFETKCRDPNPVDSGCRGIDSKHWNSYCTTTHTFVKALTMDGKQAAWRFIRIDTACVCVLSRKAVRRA

B1: E3: humanized, affinity matured anti-NGF antagonist antibody; variable regions SEQ ID NO:1 and 2; human IgG2a (A330P331 to S330S331), kappa (antibody, V domains shown)
VH: QVQLQESGPGLVKPSETLSLTCTVSGFSLIGYDLNWIRQPPGKGLEWIGIIWGDGTTDYNSAVKSRVTISKDTSKNQFSLKLSSVTAADTAVYYCARGGYWYATSYYFDYWGQGTLVTVS
VL: DIQMTQSPSSLSASVGDRVTITCRASQSISNNLNWYQQKPGKAPKLLIYYTSRFHSGVPSRFSGSGSGTDFTFTISSLQPEDIATYYCQQEHTLPYTFGQGTKLEIKRT
modifications: human IgG2a constant (A330S/P331S) and kappa constant missing
Human NGF
  koff: 1.2e-05 s⁻¹
BDNF
  survival of E17 nodose neurons promoted by BDNF: had no effect; also recorded: did not inhibit
[1]
  survival of E17/18 trigeminal neurons promoted by MSP: had no effect; also recorded: did not inhibit
